# Data: the nanobody polyreactivity screen of Harvey et al. (2022)
# Test: yeast display, Sf9 membrane polyspecificity reagent, FACS + sequencing; frameworks hold sequencing errors
# In short: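 Galactose-induced (36–48 hours) yeast carrying a synthetic nanobody display library were exposed to 10% biotinylated, detergent-solubilized Sf9 membrane reagent at 4 °C for 1 hour. FACS followed streptavidin microbead enrichment, using low and high (top ~1%) gates for expression (anti-HA) and reagent binding (streptavidin). Colony PCR, MiSeq 2 × 250 sequencing and CDR-length filtering followed. Labels for polyreactivity reflect the gate of origin.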
row,Sequence,polyreactivity (PSR sort gate)
1,QVQLVESGGGLVQAGGSLRLSCAASGRTFAYNAMGWYRQAPGKERELVAANTDSDGNTNYADSVKRRFTISRDNAKNTVYVLLNSLIPEDTAVDYCAADYIILVHVTRGFGYEYWGQGTQVTVSS,low polyreactivity
2,QVQLVESGGGLVQAGGSLRLSCAASGRTFAYYAMGWYKQAPGKERELVAAISWSGGSTYYADSVKGRFTISRDNAKYTVYLQMNSLKPEDTAVYYCNTLGGTEYGYWGQGTQVTVSS,high polyreactivity
3,QVQLVESGGGLVQAGGSLRLSCAASGRTFAYYAMGWYRQAPGKERELVAAISTSGTRTYYADSVKGRFTISRDNAKNTVYLQMNSLKPEDTAVYYCAARYRYQYEFDYWGQGTQVSVSS,high polyreactivity
4,QVQLVESGGGLVQAGGSLRLSCAASGRTFAYYAMGWYRQAPGKERELVATITWNGGSTYYADSVKGRFTISRDNAKNTVYLQMNSLKPEDTAVYYCAVRLWFDYNYWGQGTQVTVSS,low polyreactivity
5,QVQLVESGGGLVQAGGSLRLSCAASGRTFAYYAMGWYRQAPGTERELVATINSAGCTYYADSVKGRFTISRDNAKNTVYLQMNSLKPEDTAVYYCNAAYKSQVRYRRYIYWGQGTQVTVSS,high polyreactivity
6,QVQLVESGGGLVQAGGSLRLSCAASGRTFAYYTMGWYRQAPGKERELVAAITSSGGSTYYADSVKGRFTISRDNAKNTVYLQMNSLKPEDTAVYYCNAYGLRWASRLGYDYWGQGTQVTVSS,high polyreactivity
7,QVQLVESGGGLVQAGGSLRLSCAASGRTFAYYVMGWYIQAPGTERELVAAISWSAGCTYYADSVKGRFTISRDNAKNTVYLQMNSLIPEDTAVDYCAADYRFRYEYWGQGTQVTVSS,low polyreactivity
8,QVQLVESGGGLVQAGGSLRLSCAASGRTFCVNAMGWSRQAPGKERELVAAITGGGSTYYADSVKGRFTISRDNAKNTVYLQMNSLKPEDTAVYYCNADRRRRSGGFAGWHFQRNDYWGQGTQVTVSS,low polyreactivity
9,QVQLVESGGGLVQAGGSLRLSCAASGRTFCYYTMVWYRQAPGKEREMVASISRVTSTYYADSVKGRFTISRDNAKNTVDLQMNSVKPEDTAVYYCAADRTRYYVGYRWTGNKMVYWGQGTQVTLSS,low polyreactivity
10,QVQLVESGGGLVQAGGSLRLSCAASGRTFDAYAMGWYRQAPGKERELVAAIRRGSSTNYADSVKGRFTISRDNAKNTVYLQMNSLKPEDTAVYYCAARRQWLGIRTGYNYWGQGTQVTVSS,high polyreactivity
11,QVQLVESGGGLVQAGGSLRLSCAASGRTFDDNAMGWYRQAPGKERELVAAISSTGSTNYADSVKGRFTISRDNAKNTVYLQMNSLKPEDTAVYYCNTDRGHERAYYYWGQGTQVTVSS,low polyreactivity
12,QVQLVESGGGLVQAGGSLRLSCAASGRTFDEYAMGWYRQAPGKERVLVAAIDSGGSTTYADSVKGRFTISRDNAKNTVYLQINSLKPEDTAVYYCAASYPYWYITPRKFEYWGQGTQVTVSS,low polyreactivity
13,QVQLVESGGGLVQAGGSLRLSCAASGRTFDEYAMVWYRQAPGKERELVAAINSSGNTYYADSVKGRFTISRDNAKNTVYLQMNSLKPEDTAVYYCAVRSYNTISDDMDYWGQGTQVTVSS,low polyreactivity
14,QVQLVESGGGLVQAGGSLRLSCAASGRTFDGYAMGWYRQAPGKEREMVAAISRGGGNTRYADSVKGRFTISRDNAKNTVYLQMNSLKPEDTAVYYCNKLSFFPYITDEYWGQGTQVTVSS,high polyreactivity
15,QVQLVESGGGLVQAGGSLRLSCAASGRTFDLNDMGWYRQAPGKEREFVADIDWSGGNTYYADSVKGRFIISRDNAKNTVYLQMNSLKPEDTAVYYCNARRKRSYDYWGQGTQVTVSS,low polyreactivity
16,QVQLVESGGGLVQAGGSLRLSCAASGRTFDLNVMGWSRQAPGKERELVAASSFSGGSTYYADSVKGRFTLSRDNAKNTVYLQMNSLKPEDTAVYYCAADGYVRPPEMDYWGQGTQVTVSS,high polyreactivity
17,QVQLVESGGGLVQAGGSLRLSCAASGRTFDNYAMGWYRQAPGKERELVAAISSSGGRTYYADSVKGRFTISRDNAKNTVYLQMNSLKPEDTAVYYCAAVWPVYRTHPGMDYWGQGTQVTVSS,high polyreactivity
18,QVQLVESGGGLVQAGGSLRLSCAASGRTFDPNAMGWYRQAPGKERELVAAIRWTGTSTYYADSVKGRFTISRDNAKNTVYLQMNSLKPEDTAVDYCNARGSYRLRYDYWGQGTQVTVSS,high polyreactivity
19,QVQLVESGGGLVQAGGSLRLSCAASGRTFDPYAMGWYRQAPGKERELVAAITSGDDTYYADSVKGRFTISRDNAKNTVYLQMNSLKPEDTAVYYCAADSFTPDYYSHDYWGQGTQVTVSS,low polyreactivity
20,QVQLVESGGGLVQAGGSLRLSCAASGRTFDRNAMGWYRKAPGKERELVARITIDGSTNYADSVKGRFTISRDNAKNTVYLQMNSLKPEDTGVYYCAAYSASYGGYDYWGQGTQVTVSS,high polyreactivity
21,QVQLVESGGGLVQAGGSLRLSCAASGRTFDRNTMGWYRQAPGKERELVAAISSSGGSTYYADSVKGRFTISRDNAKNTVYLQMNSLKPEDTAVYYCAVLSRQYFRYGYDYWGQGTQVTVSS,high polyreactivity

row,Sequence,polyreactivity (PSR sort gate)
1,QVQLVESGGGLVQAGGSLRLSCAASGRTFDRYAMGWYRQAPGKEREFVAVISSSGVRTNYADSVKGRFTISRDNAKNTVYFQMNSLKPEDTAVYYCAAVFWFRSLSGYIYDYWGQGTQVTVST,low polyreactivity
2,QVQLVESGGGLVQAGGSLRLSCAASGRTFDSYAMGWYRQAPGKERELVAAISRAGGTNYADSVKGRFTISRDNAKLTVYLQMNRLKPDDTEVYYCAVRQAVYGLRSDFYYWGQGSQVTVSS,high polyreactivity
3,QVQLVESGGGLVQAGGSLRLSCAASGRTFDVYAMGWDRQAPGKERELVAASTSGGSTYYADSVKGRFTISRDNAKNTVYLQMNSLKPEDTAVYYCATDVDKSLYDYWGQGTQVTVSS,low polyreactivity
4,QVQLVESGGGLVQAGGSLRLSCAASGRTFDVYAMGWYRQAPGKERELVATISRSGGSTYYADSVKGRFTISRDNAKNTVYLQMNSLKPEDTAVYYCAARKRSPPYGYWGQGTQVTVSS,high polyreactivity
5,QVQLVESGGGLVQAGGSLRLSCAASGRTFDWYAMGLYRQAPGKERELVAAISWSGGSTYYADSVKGRFTISRDNAKNTVYLQMNSLKPEDTAVYYCATDSYTEQSWVAEGYSGQGTQVTVSS,low polyreactivity
6,QVQLVESGGGLVQAGGSLRLSCAASGRTFDWYVMGWYRQAPGKERELVASIPGTGSTYYADSVKGRFTISRDNAKNTVYLQMNSLKPEDTAVYYCNVAWIWGKYDYWGQGTQVTVSS,high polyreactivity
7,QVQLVESGGGLVQAGGSLRLSCAASGRTFDYNAMGWYRQAPGKERELFAAISQSGGRTYYADSVKGRFTISRDNAKNTVYLQMYSLKPVDTAVYYCAAEAYGNRDYWGQGTQVTVSS,low polyreactivity
8,QVQLVESGGGLVQAGGSLRLSCAASGRTFDYYAMGWYRQAPGKERELVAAITLSAGRTYYADSVKGRFTISRDNAKNTVYLQMNSLKPEDTAVYYCAARFRRLQRFYYWGQGTQVTVSS,high polyreactivity
9,QVQLVESGGGLVQAGGSLRLSCAASGRTFDYYAMGWYRQAPRKERELVAAISSGGSTNYADSVKGRFTISRDNAKNTVYLQMNSLKPEATAVYYCAVSGIDDVKYDYWGQGTQVTVSS,low polyreactivity
10,QVQLVESGGGLVQAGGSLRLSCAASGRTFDYYTMGWYRQAPGKERELVAAISWSGSTTYYADSVKGRFTISRDNAKNTVSLQMNSLKPEDTAVYYCAKSYRFPSVGPPGELDYWGQGTQVTVSS,high polyreactivity
11,QVQLVESGGGLVQAGGSLRLSCAASGRTFEGNAMGWDRQAPGKERELVAALTYPGGDTHYADSVKGRCTISRDNPKNTVYLQMTSLKPEDTAGYYCAADWGWPHTDSMDYWGQGTQVTVSS,low polyreactivity
12,QVQLVESGGGLVQAGGSLRLSCAASGRTFEGNAMGWYRQAPGKERELVAAISGSGGRTYYADSVKGRFTISRDNAKNTVYLQMNSLKPEDTAVYYAKLYSVYNPWRFNYWGQGTQVTVSS,high polyreactivity
13,QVQLVESGGGLVQAGGSLRLSCAASGRTFEGYTMGWYRQAPGKERELVAAITWRGTSTYYADSVKGRFTISRDNAKNTVYLQMNSLKPEDTAVYYCNKVGWYHNYYYWGQGTQVTVSS,high polyreactivity
14,QVQLVESGGGLVQAGGSLRLSCAASGRTFEGYTMGWYRQAPGKERELVSAISWSGARTYYADSVKGRFTISRDNAKNTVYLQMNSLKPEDTAVYYCAADRYWISLWYIMGYWGQGTQVTVSS,high polyreactivity
15,QVQLVESGGGLVQAGGSLRLSCAASGRTFEHYAMVWYRPAPGKERELVAAITWSGVSTYYADSVKGRFTISRDNAKNTVYLQMNSLKPEDTAVYYCAAKWLGYGFDYWGQGTQVTVSS,low polyreactivity
16,QVQLVESGGGLVQAGGSLRLSCAASGRTFERNAMGWYRQAPGKERELVAAITSGDGTSYADSVKGRFTISRDNAKNTVYLQMNSLKPEDTAVYYCAVSKGVFLVRGYAYHVGYWGQGTQVTVSS,low polyreactivity
17,QVQLVESGGGLVQAGGSLRLSCAASGRTFERNAMGWYRQAPGKERQLVAAITSGDGTSYADSVKGRFTISRDNAKNTVYLQMNSLKPEDTAVYYCAAPFVGSVVIRRWDEYDYWGQGTQVTVSS,low polyreactivity
18,QVQLVESGGGLVQAGGSLRLSCAASGRTFERYAMGWYRQAPGKERELVAAISSIGGSTYYADSVKGRFTISRDNAKNTVYLQMNSLKPEDTAVYYCADSVFYYASRYDYWGQGTKVTVSS,low polyreactivity
19,QVQLVESGGGLVQAGGSLRLSCAASGRTFESYAMGWYRQAPGKERELVAAITSTDDRTYYADSVKGRFTISRDNAKNTVYLQMNSLKPEDTAVYYCAVESRRDDFEYDYWGQGTQVTVSS,low polyreactivity
20,QVQLVESGGGLVQAGGSLRLSCAASGRTFEYYAMGWYRQAPGKERELVAAITSGGITYYADSVKGRFTISRDNAKYTVYLQMNSLKPEDTAVYYCNARHRYYRYGYWGQGTQVTVSS,high polyreactivity
